The source of these data is patent US20110065645A1, “Compositions and Methods for Modulating Neuron Degeneration and Neuron Guidance” (The Regents of the University of California, priority 2009, published 2011).

The test system of one experiment is β-catenin. The experiment is described as follows: β-catenin immunostaining in commissural axon growth cones. The format is cell-based. The following applies: bath application; LiCl 2 mM. An excerpt:
To understand how atypical PKC/Par pathway regulates axon guidance, we set out to determine the subcellular localization of aPKC, their substrates and downstream cellular effectors. […] Thus, our high-resolution confocal imaging detects a tendency of β-catenin being concentrated to one side of the growth cone (FIG. 9A). It is possible that there is low level of Wnt proteins in the culture (many neurons express Wnts). […] Therefore, it is also possible that intrinsic aPKC signaling can create chirality within the growth cone with out extrinsic signals. Such intrinsic polarity may then robustly regulate cellular morphology upon directional instructions from the environment such as a Wnt gradient. It is well known that GSK3β phosphorylates β-catenin, which then leads to proteosome-mediated degradation of β-catenin. And it is also known that GSK3β is phosphorylated and inhibited by PKCζ^(1,2). Therefore, inhibiting GSK3β or the proteosome activity generally should increase β-catenin level throughout the growth cone, canceling the asymmetry. […] We are now testing the hypothesis that Wnt proteins may locally activate PKCζ, which then inhibits GSK3β and locally stabilizes β-catenin, which is part of the asymmetric cellular mechanism leading to directional choice of a growth cone. We examine the localization of β-catenin in post-crossing commissural axon growth cones in the “post-crossing” assay and “open-book” assays.

In the next experiment the test system is JNK. Kind of experiment: Phospho-Jun immunoblot in dissociated commissural neurons. The following applies: within 15 minutes of bath application; 200 ng/ml. It is filed as cell-based, rat. The source says: JNK is activated by Wnt5a in commissural axons and required for their A-P guidance. Several Wnt genes are expressed in an anterior-posterior gradient in or around the floor plate of the spinal cord. However, the mechanisms of how Wnt signaling mediates axon attraction and growth have yet to be elucidated. We tested whether JNK signaling is activated in commissural neurons via Wnt5a stimulation by measuring the levels of phospho Jun (FIG. 20A) and also examined whether JNK is required for A-P guidance of commissural axons. Commissural neurons were cultured for 36 hrs and subject to bath application of Wnt5a. […] Furthermore, endogenous Fzd3 and Vgl2 proteins can be detected in rat E13 commissural neuron lysates after 36 hours in culture (anti-Fzd3 and anti-Vgl2 IB, FIG. 20A). The specificity of Fzd3 and Vgl2 antibodies for western blot analysis was validated using knock and mutant mouse line (FIG. 27D and FIG. 27E).
Commissural neuron culture, treatment and lysis. Rat E13 embryos were dissected and commissural neuron culture was prepared as previously described (Augsburger et al., 1999). […] The cells were then lysed on ice and the lysates were analyzed on immunoblots.
In general terms: Immunoblotting shows a protein as a band on a membrane.

A further experiment relates to commissural axons. The experiment is described as follows: Axon length of electroporated dissociated commissural neurons on Wnt5a-coated coverslips. It is filed as cell-based, rat. The source says: Fzd3 mediates Wnt-stimulated commissural axon elongation. To directly test the function of PCP components in Wnt-mediated outgrowth of commissural axons, we electroporated DNA constructs to express PCP components in dissociated commissural neurons. The spinal cord of E11.5 mouse or E13 rat contains a ventricle into which plasmid DNA can be introduced (FIG. 28A). After injecting DNA into the central canal and electroporation, the spinal cord was dissected into an “open-book” configuration and then the dorsal spinal cord margin including the progenitor domains was dissociated as previously described ((Augsburger et al., 1999), FIG. 28A). More than 90% of the electroporated and dissociated neurons were TAG-1 immuno-reactive, confirming that they are commissural neurons (Wolf et al., 2008).
This may be due the presence of low endogenous levels of PCP components in these axons following 24 hours of culture (FIGS. 20A-20E).
Electroporated commissural culture. Electroporations of rat E13 spinal cords were completed as previously described (Wolf et al., 2008). Neurons were dissociated from these spinal preps and grown as previously described (Augsburger et al., 1999). […] The axons lengths were quantified with Zeiss LSM510 software, verified with ImageJ quantification, and the data were analyzed with an unpaired two-tailed t test for each electroporation condition.

B1: Wnt5a: recombinant Wnt5a protein (R&D Systems) (protein, UniProt P41221 62-380, looked up)
Protein Wnt-5a: IIGAQPLCSQLAGLSQGQKKLCHLYQDHMQYIGEGAKTGIKECQYQFRHRRWNCSTVDNTSVFGRVMQIGSRETAFTYAVSAAGVVNAMSRACREGELSTCGCSRAARPKDLPRDWLWGGCGDNIDYGYRFAKEFVDARERERIHAKGSYESARILMNLHNNEAGRRTVYNLADVACKCHGVSGSCSLKTCWLQLADFRKVGDALKEKYDSAAAMRLNSRGKLVQVNSRFNSPTTQDLVYIDPSPDYCVRNESTGSLGTQGRLCNKTSEGMDGCELMCCGRGYDQFKTVQTERCHCKFHWCCYVKCKKCTEIVDQFVCK
For the molecule B1, in the experiment on β-catenin, the “β-catenin level and asymmetry in the growth cone” value is “increased the levels of β-catenin throughout the growth cone”. Also, the “increase of endogenous phospho-Jun levels” value in the experiment with JNK is on record as 4 fold. Further, in the experiment with commissural axons (control neurons expressing EGFP), the “increase in axon growth” value is approximately 15%. Besides, in the experiment on commissural axons (neurons over-expressing Fzd3-EGFP, within 24 hours), the “enhancement of axon length” value is given as approximately 36%.
